This is an account of results in article PMC11229326, “Structural characterization of two prototypical repressors of SorC family reveals tetrameric assemblies on DNA and mechanism of function” (Nucleic Acids Research, 2024).

Data set [1] has as its target T1, DeoR (Bacillus subtilis, UniProt P39140 2-313).
T1 sequence: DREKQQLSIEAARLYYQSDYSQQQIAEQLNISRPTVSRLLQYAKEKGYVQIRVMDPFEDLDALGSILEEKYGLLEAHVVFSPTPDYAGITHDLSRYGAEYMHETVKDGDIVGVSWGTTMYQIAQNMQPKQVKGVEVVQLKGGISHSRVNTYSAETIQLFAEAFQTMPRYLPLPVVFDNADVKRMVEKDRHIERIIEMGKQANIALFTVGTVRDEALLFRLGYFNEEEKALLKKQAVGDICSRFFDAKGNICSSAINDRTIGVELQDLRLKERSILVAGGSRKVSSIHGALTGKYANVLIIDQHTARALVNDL
Description: SEC; about 56 uM DeoR, protein:DNA 2:1; MST: 50 mM Tris-HCl pH 7.5, 150 mM NaCl, 50 mM MgCl2, 2 mM EDTA, 0.02% beta-mercaptoethanol; DeoR SEC mixes incubated 30 min on ice; CggR storage 20 mM Tris-HCl pH 7.5, 100 mM NaCl, 0.02% beta-mercaptoethanol, complex formed 30 min on ice. The settings on record: protein: recombinant; tags: N-terminal GIDPFT cloning artifact after TEV cleavage (His6-V5 removed); chain copies: 4; blunt. In general terms: Size exclusion chromatography separates by hydrodynamic size, large species first.

The target of data set [2] is T1, DeoR. Description: SEC; about 56 uM DeoR, protein:DNA 4:1; MST: 50 mM Tris-HCl pH 7.5, 150 mM NaCl, 50 mM MgCl2, 2 mM EDTA, 0.02% beta-mercaptoethanol; DeoR SEC mixes incubated 30 min on ice; CggR storage 20 mM Tris-HCl pH 7.5, 100 mM NaCl, 0.02% beta-mercaptoethanol, complex formed 30 min on ice. The settings on record: protein: recombinant; tags: N-terminal GIDPFT cloning artifact after TEV cleavage (His6-V5 removed); chain copies: 4; blunt.

Data set [3] deals with T1, DeoR. The experiment in a line: MST; DeoR 4 uM; 50 mM MgCl2; Hill coefficient slightly below 1; MST: 50 mM Tris-HCl pH 7.5, 150 mM NaCl, 50 mM MgCl2, 2 mM EDTA, 0.02% beta-mercaptoethanol; DeoR SEC mixes incubated 30 min on ice; CggR storage 20 mM Tris-HCl pH 7.5, 100 mM NaCl, 0.02% beta-mercaptoethanol, complex formed 30 min on ice. The settings on record: protein: recombinant; tags: N-terminal GIDPFT cloning artifact after TEV cleavage (His6-V5 removed); chain copies: 4; blunt.

Data set [4] concerns the molecule itself. Description: crystal structure; DeoR co-crystallised with the 18 bp DNA duplex OL18 (left half-operator); hanging drop, 18°C; two dimers in the asymmetric unit, tetramer formed with a symmetry-related dimer; 3.7 Å.
The target of data set [5] is T1, DeoR. The experiment in a line: X-ray crystallography; 3.7 A; protein about 8 mg/ml; 75 mM CaCl2, 25 mM MgCl2; MST: 50 mM Tris-HCl pH 7.5, 150 mM NaCl, 50 mM MgCl2, 2 mM EDTA, 0.02% beta-mercaptoethanol; DeoR SEC mixes incubated 30 min on ice; CggR storage 20 mM Tris-HCl pH 7.5, 100 mM NaCl, 0.02% beta-mercaptoethanol, complex formed 30 min on ice. The settings on record: protein: recombinant; tags: N-terminal GIDPFT cloning artifact after TEV cleavage (His6-V5 removed); chain copies: 4; blunt.

Data set [6] deals with the molecule itself. The experiment in a line: cryo-EM 2D classification; purified CggR-OLR complex (0.86 mg/ml) with 2 mM FBP, about 15 min on ice.
Data set [7] deals with the molecule itself. The experiment in a line: cryo-EM structure; CggR with the 45 bp operator DNA OLR (molar ratio 4:1.5), SEC-purified complex, 0.86 mg/ml; C2 symmetry, 4.3 Å.
Data set [8] concerns the target CggR (Bacillus subtilis, UniProt O32253 1-340). The experiment in a line: cryo-EM; 4.3 A; tetramer, no effector; MST: 50 mM Tris-HCl pH 7.5, 150 mM NaCl, 50 mM MgCl2, 2 mM EDTA, 0.02% beta-mercaptoethanol; DeoR SEC mixes incubated 30 min on ice; CggR storage 20 mM Tris-HCl pH 7.5, 100 mM NaCl, 0.02% beta-mercaptoethanol, complex formed 30 min on ice. The settings on record: protein: recombinant; tags: N-terminal GIDPFT cloning artifact after TEV cleavage (His6-V5 removed); chain copies: 4; blunt.

B1: OR24 (dsDNA)
DNA 1: TACCAATTTACATATGTTCAAAAG
DNA 2: CTTTTGAACATATGTAAATTGGTA
As for B1, the binding result in data set [1] is given as “no binding”.

B2: OL44 (dsDNA)
DNA 1: CACGTTCAAACCTTTCATTGAACAAAATTTCAATTACCAATTTACA
DNA 2: TGTAAATTGGTAATTGAAATTTTGTTCAATGAAAGGTTTGAACGTG
Turning to B2, the binding result in data set [2] is recorded as “no binding”.

B3: OLR65 (dsDNA)
DNA 1: GTGACACGTTCAAACCTTTCATTGAACAAAATTTCAATTACCAATTTACATATGTTCAAAAGTCG
DNA 2: CGACTTTTGAACATATGTAAATTGGTAATTGAAATTTTGTTCAATGAAAGGTTTGAACGTGTCAC
Turning to B3, in data set [3], the Kd was roughly 30 µM.

B4: DeoR from Bacillus subtilis (deoxyribonucleoside regulator, SorC/DeoR subfamily repressor) (natural protein)
chain: GIDPFTDREKQQLSIEAARLYYQSDYSQQQIAEQLNISRPTVSRLLQYAKEKGYVQIRVMDPFEDLDALGSILEEKYGLLEAHVVFSPTPDYAGITHDLSRYGAEYMHETVKDGDIVGVSWGTTMYQIAQNMQPKQVKGVEVVQLKGGISHSRVNTYSAETIQLFAEAFQTMPRYLPLPVVFDNADVKRMVEKDRHIERIIEMGKQANIALFTVGTVRDEALLFRLGYFNEEEKALLKKQAVGDICSRFFDAKGNICSSAINDRTIGVELQDLRLKERSILVAGGSRKVSSIHGALTGKYANVLIIDQHTARALVNDL
notes: cloning artifact that remains at the N-terminus after TEV PR cleavage; DBD residues 1-55, EBD residues 56-313; in the crystal model residue T1 is the last residue of the cloning artifact; also called apo-DeoR; source: E. coli BL21 (DE3), purified (Ni-NTA, TEV PR cleavage, reverse Ni-NTA); LB broth for structural studies, minimal medium for mass photometry and SEC; not shown: His6, N-terminal, …
Take B4: the “stoichiometry N” value in data set [4] was 4.

B5: OL18 (dsDNA)
DNA 1: ATTGAACAAAATTTCAAT
DNA 2: ATTGAAATTTTGTTCAAT
Take B5: in data set [5], the binding result was “binds”.

B6: CggR from Bacillus subtilis (central glycolytic genes regulator, SorC/CggR subfamily repressor) (natural protein)
chain: GIDPFTMNQLIQAQKKLLPDLLLVMQKRFEILQYIRLTEPIGRRSLSASLGISERVLRGEVQFLKEQNLVDIKTNGMTLTEEGYELLSVLEDTMKDVLGLTLLEKTLKERLNLKDAIIVSGDSDQSPWVKKEMGRAAVACMKKRFSGKNIVAVTGGTTIEAVAEMMTPDSKNRELLFVPARGGLGEDVKNQANTICAHMAEKASGTYRLLFVPGQLSQGAYSSIIEEPSVKEVLNTIKSASMLVHGIGEAKTMAQRRNTPLEDLKKIDDNDAVTEAFGYYFNADGEVVHKVHSVGMQLDDIDAIPDIIAVAGGSSKAEAIEAYFKKPRNTVLVTDEGAAKKLLRDE
notes: cloning artifact that remains at the N-terminus after TEV PR cleavage; DBD and EBD connected by residues 92-94; also called apo-CggR; source: E. coli BL21 (DE3), purified (Ni-NTA, hydroxyapatite, TEV PR cleavage, reverse Ni-NTA, Mono-Q ion exchange); not shown: His6, N-terminal, cleaved
For B6, the entries for the “stoichiometry N” value in data set [6] and in data set [7] were 2 and 4, respectively.

B7: OLR39 (dsDNA)
DNA 1: ATTGAACAAAATTTCAATTACCAATTTACATATGTTCAA
DNA 2: TTGAACATATGTAAATTGGTAATTGAAATTTTGTTCAAT
As to B7, in data set [2], the binding result was “binds”.

B8: CggR OLR (45 bp) (dsDNA)
DNA 1: TGACGGGACGTTTTTTGTCATAGCGGGACATATAATGTCCAGCAA
DNA 2: TTGCTGGACATTATATGTCCCGCTATGACAAAAAACGTCCCGTCA
For B8, the binding result in data set [8] is on record as “binds”.

One may read the Kd as a measure of binding affinity in units of concentration. A word on the stoichiometry N: it is the number of molecules, sites or subunits per partner or assembly.
